According to US9005962B2, “Regionalised endoderm cells and uses thereof” (The University Court of the University of Edinburgh, priority 2007, dated 2015):

Legend:
[1] = test system: Hex^RS ES cells; experiment: ADE (H+C+) induction, two-step suspension (embryoid body) differentiation with serum day 0-2, flow cytometry for RS and Cxcr4; format: cell-based, mouse
Experimental: ADE was induced under serum-containing conditions using a 2-step protocol. ES cells were seeded onto non-coated 10 cm petri dishes (sterilin) at a density of 5×10^3 cells/ml in Glasgow minimum essential medium (G-MEM; GIBCO-BRL) supplemented with 10% fetal calf serum (FCS), 0.1 mM nonessential amino acids (GIBCO-BRL), 1 mM sodium pyruvate, 2 mM glutamine and 0.1 mM 2-mercaptoethanol (2ME). Following 2 days of culture the resulting embryoid bodies (EBs) were harvested by centrifugation at 500 rpm for 1 min and replated on 10 cm non-coated petri dishes at the same density in N2B27 culture medium (StemCellSciences) supplemented with 20 ng/ml activin A (R&D). The media was replaced 2 days later and then every 3 days for the duration of the experiment. For some experiments 20 ng/ml EGF, 10 ng/ml Bmp4, 20 ng/ml activin A (R&D), 1×10^−5M all-trans retinoic acid (Sigma) and 3 μM CHIR99021 (a gift from StemCellSciences) were added to the culture at the indicated timepoints.
(§1) FITC-conjugated rat anti-CD184 (CXCR4), FITC-conjugated rat anti-CD31 and FITC conjugated rat anti-CD45 were purchased from BD Pharmingen. EBs generated under various different differentiation conditions were dissociated by treatment with cell dissociation buffer (PBS based) (GIBCO-BRL). Cells were washed in PBS supplemented with 10% FCS (FB) and resuspended at a maximum density of 5×10^6 cells/ml. For surface staining 200 μl of cells were plated in a V shape 96 well polystyrene plate (Sterilin) in PBS supplemented with 1% serum of the species in which the antibody was manufactured. The FITC-conjugated antibody or a FITC-conjugated isotype control was added at a 1:100 dilution. Cells were incubated in the dark for 20 mins, washed 3 times with FB and resuspended in FB supplemented with Topro3-iodide (Invitrogen) to exclude dead cell from the analysis. Cells were analysed using a FACS Calibur (BD Biosciences) or sorted using a MoFlo MLS flow cytometer (DakoCytomation).
Mouse ES cells were cultured according to Li et al., (1995). ADE was induced under serum-containing conditions using a 2-step protocol. ES cells were seeded onto non-coated 10 cm petri dishes (Sterilin) at a density of 5×10^3 cells/ml in GMEM supplemented as described in Li et al., (1995) except in the absence of LIF. EBs were harvested after two days by centrifugation and replated in N2B27 medium (StemCellSciences) supplemented with 20 ng/ml activin A (R&D) and 20 ng/ml EGF (R&D). This media was replaced again two days later. 10 ng/ml BMP4, 20 ng/ml activin A (R&D) and 1×10^−5M all-trans retinoic acid (Sigma) were added where indicated.
(§2) FITC-conjugated rat anti-CD184 (Cxcr4), FITC-conjugated rat anti-CD31 and FITC conjugated rat anti-CD45 were purchased from BD Pharmingen. Cells were stained with Topro3-iodide (Invitrogen) to exclude dead cells from the analysis. Cells were analysed using a FACS Calibur (BD Biosciences) or sorted using a MoFlo MLS flow cytometer (DakoCytomation).

[2] = test system: Hex^RS ES cells; experiment: ADE (H+C+) induction, serum-free suspension (aggregation) culture, flow cytometry; format: cell-based; settings: added during the first two days; serum-free, aggregation and monolayer (Table 7)
Experimental: For ADE induction under serum-free conditions in suspension culture, ES cells were seeded onto non-coated 10 cm Petri dishes at 5×10^3 cells/ml in N2B27 culture medium supplemented with 10 ng/ml Bmp4 and 20 ng/ml activin A. Following 2 days of culture the resulting EBs were harvested as above and replated on non-coated Petri dishes at the same density in SF03 culture medium (ref Tada 2005) supplemented with 20 ng/ml activin A and 20 ng/ml EGF. The media was replaced 2 days later and then every 3 days for the duration of the experiment. For some experiments 10 ng/ml Fgf4 (R&D), 10 ng/ml Bmp4, 20 ng/ml Activin A, 1×10^−5M all-trans retinoic acid, 100 ng/ml PD173074 (Sigma), 20 ng/ml EGF and 3 μM CHIR99021 were added to the culture at the indicated timepoints.
as §1, with “(DakoCytomation). […]” for “(DakoCytomation).”
FITC-conjugated rat anti-CD184 (Cxcr4), FITC-conjugated rat anti-CD31 and FITC conjugated rat anti-CD45 were purchased from BD Pharmingen. […] Cells were analysed using a FACS Calibur (BD Biosciences) or sorted using a MoFlo MLS flow cytometer (DakoCytomation).

[3] = test system: Hex^RS ES cells; experiment: ADE (H+C+) induction, serum-free adherent monolayer culture, flow cytometry, RT-PCR and immunostaining; format: cell-based; settings: monolayer culture
Experimental: For ADE induction under serum-free conditions in adherent monolayer culture, ES cells were seeded onto gelatin coated 3 cm 6 well dishes (Iwaki) at a density of 1×10^4 cells/ml in N2B27 medium (StemCellSciences) supplemented with 10 ng/ml Bmp4, 20 ng/ml activin A and 10 ng/ml Fgf4. Following 2 days of culture the media was replaced with SF03 culture medium (Tada 2005) supplemented with 20 ng/ml activin A, 10 ng/ml Fgf4 and 20 ng/ml EGF. The media was replaced 2 days later and then every 3 days for the duration of the experiment. For some experiments 1×10^−5M all-trans retinoic acid, 100 ng/ml PD173074 and 3 μM CHIR99021 were added to the culture at the indicated timepoints.
as §1
Total RNA was prepared from a minimum of 1×10^4 cells from sorted cell fractions, EBs, monolayer differentiated cells or ES cells using Trizol reagent (Invitrogen). 1 μg of RNA was used as a template for cDNA synthesis using Superscript III (Invitrogen). Real-time RT-PCR was performed using a LightCycler 480 (Roche) and LightCycler 480 SYBR Green 1 Master (Roche). The following cycling conditions were used: denaturation: 95° C. 5 sec, amplification: 95° C. 5 sec, 58° C. 10 sec, 72° C. 20 sec (45 cycles), 81° C. 1 sec, melt: 95° C. 1 sec, 65° C. 10 sec, 95° C. −ramp 5 C per sec continuous, cool: […] 10 sec. Standard curves were generated from plasmid. Samples were normalized to β-actin or TATA-box binding protein (TBP) expression levels.
Sorted cells were seeded onto gelatin coated 24 well dishes (Iwaki). Adherence of cells to the substrate was enhanced by centrifugation at 1200 rpm for 3 mins. Sorted cells, monolayer differentiated cells and ES cells were washed in PBS, fixed in 4% paraformaldehyde for 10 mins and permeabilised by washing in PBS supplemented with 0.1% Triton X (PBST). Cells were treated with a blocking reagent (3% serum of same species as secondary antibody, 1% BSA in PBST) for 15 min before incubation with the primary antibody at 4° C. overnight. The cells were washed with PBST and incubated with the appropriate fluorescence-tagged secondary antibody for 2 hr at room temperature. The cells were washed with PBST and DAPI added during the final wash. The following primary antibodies were used, all are anti-mouse: anti-Oct3/4, anti-HNF-3β (Foxa2), anti-HNF-4α (Santa Cruz), anti-Cer11 (R&D), anti-E-cadherin (Takara Bio Inc) anti-alpha fetoprotein (NeoMarkers), anti-albumin (Bethyl laboratories inc). Anti-Pdx1 was a gift from P. Serup. […]
as §2

B1: Bmp4: bone morphogenetic protein, 10 ng/ml (protein, UniProt P12644 293-408, looked up)
Bone morphogenetic protein 4: SPKHHSQRARKKNKNCRRHSLYVDFSDVGWNDWIVAPPGYQAFYCHGDCPFPLADHLNSTNHAIVQTLVNSVNSSIPKACCVPTELSAISMLYLDEYDKVVLKNYQEMVVEGCGCR
- induction of the RS positive population ([1]; added either at day 0 or day 3 (Table 2)): completely blocked
- CXCR4 induction ([1]; added either at day 0 or day 3, data not shown): without effecting
- total number of surviving cells at the end of the 7 day differentiation [2]: significantly increased
- H+C+ percentage [3]: increased
